Experimental findings from publication PMC8298264, “Function of cofactor Akirin2 in the regulation of gene expression in model human neutrophil-like HL60 cells” (Bioscience Reports, 2021) are described below.

B1: sp¦Q96HE7¦ERO1A_HUMAN (protein, UniProt Q96HE7 24-468, looked up)
ERO1-like protein alpha: EEQPPETAAQRCFCQVSGYLDDCTCDVETIDRFNNYRLFPRLQKLLESDYFRYYKVNLKRPCPFWNDISQCGRRDCAVKPCQSDEVPDGIKSASYKYSEEANNLIEECEQAERLGAVDESLSEETQKAVLQWTKHDDSSDNFCEADDIQSPEAEYVDLLLNPERYTGYKGPDAWKIWNVIYEENCFKPQTIKRPLNPLASGQGTSEENTFYSWLEGLCVEKRAFYRLISGLHASINVHLSARYLLQETWLEKKWGHNITEFQQRFDGILTEGEGPRRLKNLYFLYLIELRALSKVLPFFERPDFQLFTGNKIQDEENKMLLLEILHEIKSFPLHFDENSFFAGDKKEAHKLKEDFRLHFRNISRIMDCVGCFKCRLWGKLQTQGLGTALKILFSEKLIANMPESGPSYEFHLTRQEIVSLFNAFGRISTSVKELENFRNLLQNIH
B2: sp¦P54577¦SYYC_HUMAN (protein, UniProt P54577 1-528, looked up)
Tyrosine--tRNA ligase, …: MGDAPSPEEKLHLITRNLQEVLGEEKLKEILKERELKIYWGTATTGKPHVAYFVPMSKIADFLKAGCEVTILFADLHAYLDNMKAPWELLELRVSYYENVIKAMLESIGVPLEKLKFIKGTDYQLSKEYTLDVYRLSSVVTQHDSKKAGAEVVKQVEHPLLSGLLYPGLQALDEEYLKVDAQFGGIDQRKIFTFAEKYLPALGYSKRVHLMNPMVPGLTGSKMSSSEEESKIDLLDRKEDVKKKLKKAFCEPGNVENNGVLSFIKHVLFPLKSEFVILRDEKWGGNKTYTAYVDLEKDFAAEVVHPGDLKNSVEVALNKLLDPIREKFNTPALKKLASAAYPDPSKQKPMAKGPAKNSEPEEVIPSRLDIRVGKIITVEKHPDADSLYVEKIDVGEAEPRTVVSGLVQFVPKEELQDRLVVVLCNLKPQKMRGVESQGMLLCASIEGINRQVEPLDPPAGSAPGEHVFVKGYEKGQPDEELKPKKKVFEKLQADFKISEECIAQWKQTNFMTKLGSISCKSLKGGNIS
B3: sp¦P33176¦KINH_HUMAN (protein, UniProt P33176 2-963, looked up)
Kinesin-1 heavy chain: ADLAECNIKVMCRFRPLNESEVNRGDKYIAKFQGEDTVVIASKPYAFDRVFQSSTSQEQVYNDCAKKIVKDVLEGYNGTIFAYGQTSSGKTHTMEGKLHDPEGMGIIPRIVQDIFNYIYSMDENLEFHIKVSYFEIYLDKIRDLLDVSKTNLSVHEDKNRVPYVKGCTERFVCSPDEVMDTIDEGKSNRHVAVTNMNEHSSRSHSIFLINVKQENTQTEQKLSGKLYLVDLAGSEKVSKTGAEGAVLDEAKNINKSLSALGNVISALAEGSTYVPYRDSKMTRILQDSLGGNCRTTIVICCSPSSYNESETKSTLLFGQRAKTIKNTVCVNVELTAEQWKKKYEKEKEKNKILRNTIQWLENELNRWRNGETVPIDEQFDKEKANLEAFTVDKDITLTNDKPATAIGVIGNFTDAERRKCEEEIAKLYKQLDDKDEEINQQSQLVEKLKTQMLDQEELLASTRRDQDNMQAELNRLQAENDASKEEVKEVLQALEELAVNYDQKSQEVEDKTKEYELLSDELNQKSATLASIDAELQKLKEMTNHQKKRAAEMMASLLKDLAEIGIAVGNNDVKQPEGTGMIDEEFTVARLYISKMKSEVKTMVKRCKQLESTQTESNKKMEENEKELAACQLRISQHEAKIKSLTEYLQNVEQKKRQLEESVDALSEELVQLRAQEKVHEMEKEHLNKVQTANEVKQAVEQQIQSHRETHQKQISSLRDEVEAKAKLITDLQDQNQKMMLEQERLRVEHEKLKATDQEKSRKLHELTVMQDRREQARQDLKGLEETVAKELQTLHNLRKLFVQDLATRVKKSAEIDSDDTGGSAAQKQKISFLENNLEQLTKVHKQLVRDNADLRCELPKLEKRLRATAERVKALESALKEAKENASRDRKRYQQEVDRIKEAVRSKNMARRGHSAQIAKPIRPGQHPAASPTHPSAIRGGGAFVQNSQPVAVRGGGGKQV
B4: sp¦P61009¦SPCS3_HUMAN (protein, UniProt P61009 1-180, looked up)
Signal peptidase complex …: MNTVLSRANSLFAFSLSVMAALTFGCFITTAFKDRSVPVRLHVSRIMLKNVEDFTGPRERSDLGFITFDITADLENIFDWNVKQLFLYLSAEYSTKNNALNQVVLWDKIVLRGDNPKLLLKDMKTKYFFFDDGNGLKGNRNVTLTLSWNVVPNAGILPLVTGSGHVSVPFPDTYEITKSY
B5: sp¦Q99496¦RING2_HUMAN (protein, UniProt Q99496 2-336, looked up)
E3 ubiquitin-protein ligase …: SQAVQTNGTQPLSKTWELSLYELQRTPQEAITDGLEIVVSPRSLHSELMCPICLDMLKNTMTTKECLHRFCADCIITALRSGNKECPTCRKKLVSKRSLRPDPNFDALISKIYPSRDEYEAHQERVLARINKHNNQQALSHSIEEGLKIQAMNRLQRGKKQQIENGSGAEDNGDSSHCSNASTHSNQEAGPSNKRTKTSDDSGLELDNNNAAMAIDPVMDGASEIELVFRPHPTLMEKDDSAQTRYIKTSGNATVDHLSKYLAVRLALEELRSKGESNQMNLDTASEKQYTIYIATASGQFTVLNGSFSLELVSEKYWKVNKPMELYYAPTKEHK
B6: sp¦O96008¦TOM40_HUMAN (protein, UniProt O96008 1-361, looked up)
Mitochondrial import receptor …: MGNVLAASSPPAGPPPPPAPALVGLPPPPPSPPGFTLPPLGGSLGAGTSTSRSSERTPGAATASASGAAEDGACGCLPNPGTFEECHRKCKELFPIQMEGVKLTVNKGLSNHFQVNHTVALSTIGESNYHFGVTYVGTKQLSPTEAFPVLVGDMDNSGSLNAQVIHQLGPGLRSKMAIQTQQSKFVNWQVDGEYRGSDFTAAVTLGNPDVLVGSGILVAHYLQSITPCLALGGELVYHRRPGEEGTVMSLAGKYTLNNWLATVTLGQAGMHATYYHKASDQLQVGVEFEASTRMQDTSVSFGYQLDLPKANLLFKGSVDSNWIVGATLEKKLPPLPLTLALGAFLNHRKNKFQCGFGLTIG
B7: sp¦Q9H0A0¦NAT10_HUMAN (protein, UniProt Q9H0A0 1-1025, looked up)
RNA cytidine acetyltransferase: MHRKKVDNRIRILIENGVAERQRSLFVVVGDRGKDQVVILHHMLSKATVKARPSVLWCYKKELGFSSHRKKRMRQLQKKIKNGTLNIKQDDPFELFIAATNIRYCYYNETHKILGNTFGMCVLQDFEALTPNLLARTVETVEGGGLVVILLRTMNSLKQLYTVTMDVHSRYRTEAHQDVVGRFNERFILSLASCKKCLVIDDQLNILPISSHVATMEALPPQTPDESLGPSDLELRELKESLQDTQPVGVLVDCCKTLDQAKAVLKFIEGISEKTLRSTVALTAARGRGKSAALGLAIAGAVAFGYSNIFVTSPSPDNLHTLFEFVFKGFDALQYQEHLDYEIIQSLNPEFNKAVIRVNVFREHRQTIQYIHPADAVKLGQAELVVIDEAAAIPLPLVKSLLGPYLVFMASTINGYEGTGRSLSLKLIQQLRQQSAQSQVSTTAENKTTTTARLASARTLYEVSLQESIRYAPGDAVEKWLNDLLCLDCLNITRIVSGCPLPEACELYYVNRDTLFCYHKASEVFLQRLMALYVASHYKNSPNDLQMLSDAPAHHLFCLLPPVPPTQNALPEVLAVIQVCLEGEISRQSILNSLSRGKKASGDLIPWTVSEQFQDPDFGGLSGGRVVRIAVHPDYQGMGYGSRALQLLQMYYEGRFPCLEEKVLETPQEIHTVSSEAVSLLEEVITPRKDLPPLLLKLNERPAERLDYLGVSYGLTPRLLKFWKRAGFVPVYLRQTPNDLTGEHSCIMLKTLTDEDEADQGGWLAAFWKDFRRRFLALLSYQFSTFSPSLALNIIQNRNMGKPAQPALSREELEALFLPYDLKRLEMYSRNMVDYHLIMDMIPAISRIYFLNQLGDLALSAAQSALLLGIGLQHKSVDQLEKEIELPSGQLMGLFNRIIRKVVKLFNEVQEKAIEEQMVAAKDVVMEPTMKTLSDDLDEAAKEFQEKHKKEVGKLKSMDLSEYIIRGDDEEWNEVLNKAGPNASIISLKSDKKRKLEAKQEPKQSKKLKNRETKNKKDMKLKRKK
B8: sp¦O75607¦NPM3_HUMAN (protein, UniProt O75607 2-178, looked up)
Nucleoplasmin-3: AAGTAAALAFLSQESRTRAGGVGGLRVPAPVTMDSFFFGCELSGHTRSFTFKVEEEDDAEHVLALTMLCLTEGAKDECNVVEVVARNHDHQEIAVPVANLKLSCQPMLSLDDFQLQPPVTFRLKSGSGPVRITGRHQIVTMSNDVSEEESEEEEEDSDEEEVELCPILPAKKQGGRP
B9: sp¦P42167¦LAP2B_HUMAN (protein, UniProt P42167 1-454, looked up)
Lamina-associated polypeptide …: MPEFLEDPSVLTKDKLKSELVANNVTLPAGEQRKDVYVQLYLQHLTARNRPPLPAGTNSKGPPDFSSDEEREPTPVLGSGAAAAGRSRAAVGRKATKKTDKPRQEDKDDLDVTELTNEDLLDQLVKYGVNPGPIVGTTRKLYEKKLLKLREQGTESRSSTPLPTISSSAENTRQNGSNDSDRYSDNEEDSKIELKLEKREPLKGRAKTPVTLKQRRVEHNQSYSQAGITETEWTSGSSKGGPLQALTRESTRGSRRTPRKRVETSEHFRIDGPVISESTPIAETIMASSNESLVVNRVTGNFKHASPILPITEFSDIPRRAPKKPLTRAEVGEKTEERRVERDILKEMFPYEASTPTGISASCRRPIKGAAGRPLELSDFRMEESFSSKYVPKYVPLADVKSEKTKKGRSIPVWIKILLFVVVAVFLFLVYQAMETNQVNPFSNFLHVDPRKSN
B10: sp¦Q92990¦GLMN_HUMAN (protein, UniProt Q92990 2-594, looked up)
Glomulin: AVEELQSIIKRCQILEEQDFKEEDFGLFQLAGQRCIEEGHTDQLLEIIQNEKNKVIIKNMGWNLVGPVVRCLLCKDKEDSKRKVYFLIFDLLVKLCNPKELLLGLLELIEEPSGKQISQSILLLLQPLQTVIQKLHNKAYSIGLALSTLWNQLSLLPVPYSKEQIQMDDYGLCQCCKALIEFTKPFVEEVIDNKENSLENEKLKDELLKFCFKSLKCPLLTAQFFEQSEEGGNDPFRYFASEIIGFLSAIGHPFPKMIFNHGRKKRTWNYLEFEEEENKQLADSMASLAYLVFVQGIHIDQLPMVLSPLYLLQFNMGHIEVFLQRTEESVISKGLELLENSLLRIEDNSLLYQYLEIKSFLTVPQGLVKVMTLCPIETLRKKSLAMLQLYINKLDSQGKYTLFRCLLNTSNHSGVEAFIIQNIKNQIDMSLKRTRNNKWFTGPQLISLLDLVLFLPEGAETDLLQNSDRIMASLNLLRYLVIKDNENDNQTGLWTELGNIENNFLKPLHIGLNMSKAHYEAEIKNSQEAQKSKDLCSITVSGEEIPNMPPEMQLKVLHSALFTFDLIESVLARVEELIEIKTKSTSEENIGIK

The subject of the first experiment is human HL60 cells. The experiment is described as follows: SWATH-MS proteomics, differential protein representation, akirin2 KO vs WT HL60 cells. The experiment is classed as cell-based. To be noted: SWATH-MS, akirin2 KO vs WT HL60 cells, under-represented in KO. Put shortly:
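Read-out is label-free SWATH-MS protein area, globally normalized to total detected-protein area, with identifications held at 1% FDR against a library from information-dependent acquisition.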
On to B1, for which the “Fold Change” value turned out to be 0.7045 and the “Log (Fold Change)” value was -0.1521.
As for B2, the “Fold Change” value amounted to 0.6907 and the “Log (Fold Change)” value is recorded as -0.1607.
In the case of B3, the “Fold Change” value worked out at 0.7087 and the “Log (Fold Change)” value is on record as -0.1495.
The matching figures for B4: 0.6925 and -0.1596.
The matching figures for B5: 0.6992 and -0.1554.
On to B6, for which the “Fold Change” value is reported as 0.6912 and the “Log (Fold Change)” value was -0.1604.
The matching figures for B7: 0.7033 and -0.1528.
The matching figures for B8: 0.6936 and -0.1589.
For the molecule B9, the “Fold Change” value was 0.7013 and the “Log (Fold Change)” value was -0.1541.

Still in this experiment, the particulars now being: akirin2 KO vs WT HL60 cells; sheet "Under-represented in KO".
As to B10, the “Fold Change” value stood at 0.3264 and the “Log (Fold Change)” value is recorded as -0.4863.
